Laboratory results reported in patent publication US20040192609A1.

Assays:
[1] = target: gp120 of the HIV-1 isolate ADA (HIV-1); test: scFv precipitated with Protein L-Sepharose, radiolabeled ADA gp120 with and without soluble CD4, densitometry
[2] = target: envelope glycoprotein of the R5-isolate ADA on pseudotyped HIV-1 (HIV-1); test: cell-based or functional assay

Row | Substance | enhancement of binding to gp120 by soluble CD4 [1] | EC50 of neutralization of ADA virus [2] | also measured
1 | 17b scFv | > 2 fold | – | –
2 | 47e scFv (wt) | > 2 fold | – | –
3 | 412d scFv (wt) | > 2 fold | – | –
4 | CD4 binding site antibody F105 | – | 0.2 to 0.5 µg/mL | –
5 | E51 scFv | – | – | increase of binding to gp120 in the presence of CD4 [1]: 40%
6 | antibody 17b | – | > 2 µg/mL | –
7 | antibody 412d | – | 0.2 to 0.5 µg/mL | –
8 | antibody E51 | – | < 0.05 µg/mL | –
